# Measured values taken from patent US20230279131A1.
# Where two headings read alike, the source gives them in different places.
# Assays:
# [1] = target: T1, human IL-2Rγ expressed on cells (NK-92, Jurkat) (human) (UniProt P31785); experiment: flow cytometry on NK-92 cells (endogenous human IL-2Rg), isotype control 10 ug/ml
# T1 sequence (looked up): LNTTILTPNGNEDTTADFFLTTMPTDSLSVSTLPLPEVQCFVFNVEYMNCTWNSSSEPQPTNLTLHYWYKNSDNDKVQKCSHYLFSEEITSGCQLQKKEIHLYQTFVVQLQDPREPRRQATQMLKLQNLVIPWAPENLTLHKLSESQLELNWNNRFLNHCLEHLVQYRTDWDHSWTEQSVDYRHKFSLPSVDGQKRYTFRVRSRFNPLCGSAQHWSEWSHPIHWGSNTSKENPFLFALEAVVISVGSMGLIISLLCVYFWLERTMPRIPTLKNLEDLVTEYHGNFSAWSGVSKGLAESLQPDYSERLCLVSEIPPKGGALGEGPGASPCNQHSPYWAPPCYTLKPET
# [2] = target: human IL-2Rγ expressed on cells (human) (UniProt P31785); experiment: flow cytometry, isotype control at 10 µg/ml; high end of the range (NK-92 by Table 9-1)
# [3] = target: human IL-2Rγ expressed on cells (human) (UniProt P31785); experiment: flow cytometry, isotype control at 10 µg/ml; low end of the range (Jurkat by Table 9-1)
# [4] = target: human IL-2Rγ expressed on cells (human) (UniProt P31785); experiment: flow cytometry on NK-92 cells, isotype control at 10 µg/ml; the end of the range that Table 9-2 ties to NK-92
# [5] = target: T1, human IL-2Rγ expressed on cells (NK-92, Jurkat) (human); experiment: flow cytometry on NK-92 cells (endogenous human IL-2Rg), isotype control 10 ug/ml; remark: listed apart in the source
# [6] = target: T1, human IL-2Rγ expressed on cells (NK-92, Jurkat) (human); experiment: flow cytometry on Jurkat cells (endogenous human IL-2Rg), isotype control 10 ug/ml
# [7] = target: T2, mouse IL-2Rγ expressed on cells (MC/9) (mouse) (UniProt P34902); experiment: flow cytometry on MC/9 cells (endogenous mouse IL-2Rg), isotype control 10 ug/ml
# T2 sequence (looked up): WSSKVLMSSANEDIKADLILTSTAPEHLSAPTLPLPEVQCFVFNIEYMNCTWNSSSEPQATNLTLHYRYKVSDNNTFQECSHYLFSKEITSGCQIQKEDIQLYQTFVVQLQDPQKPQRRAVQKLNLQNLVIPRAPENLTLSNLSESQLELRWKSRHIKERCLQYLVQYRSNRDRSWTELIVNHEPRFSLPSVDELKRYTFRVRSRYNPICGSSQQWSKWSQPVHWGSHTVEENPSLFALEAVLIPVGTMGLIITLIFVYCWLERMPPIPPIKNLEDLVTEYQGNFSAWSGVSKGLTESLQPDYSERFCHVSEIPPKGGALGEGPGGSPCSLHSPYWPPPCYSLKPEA
# [8] = target: T2, mouse IL-2Rγ expressed on cells (MC/9) (mouse); experiment: flow cytometry on MC/9 cells (endogenous mouse IL-2Rg), secondary antibody alone
# [9] = target: T1, human IL-2Rγ expressed on cells (NK-92, Jurkat) (human); experiment: flow cytometry on Jurkat cells (endogenous human IL-2Rg), secondary antibody alone
# [10] = target: T1, human IL-2Rγ expressed on cells (NK-92, Jurkat) (human); experiment: flow cytometry on NK-92 cells (endogenous human IL-2Rg), secondary antibody alone
# [11] = target: T3, human IL2Rγ expressed on cells (human) (UniProt P31785); experiment: cell-based or functional assay
# T3 sequence (looked up): T1 sequence (looked up)
# [12] = target: T3, human IL2Rγ expressed on cells (human); experiment: cell-based or functional assay; remark: listed apart in the source
substance,measurement,setting,value
REGN1945 (antibody),Binding Ratio (Sample over unstained MFIs),[1],1
same,binding ratio (sample MFI over unstained MFI),[2],13
same,binding ratio (sample MFI over unstained MFI),[3],1
same,binding ratio (sample MFI over unstained MFI),[4],1
same,Binding Ratio (Sample over unstained MFIs),[5],13
same,Binding Ratio (Sample over unstained MFIs),[6],1
same,Binding Ratio (Sample over unstained MFIs),[7],1
"anti-human antibody conjugated to allophycocyanin (APC) (Jackson ImmunoResearch, #109-136-170)",Binding Ratio (Sample over unstained MFIs),[8],1
same,Binding Ratio (Sample over unstained MFIs),[9],1
same,Binding Ratio (Sample over unstained MFIs),[10],1
human IL-2 (from UniProt P60568 21-153) (ligand),EC50 [M] of ligand; NK92/hIL7R/STAT3-luc,[11],3.3e-11 M
same,EC50 [M] of ligand; NK92/hIL7R/STAT3-luc,[12],4.5e-11 M
human IL-9 (from UniProt P15248 19-144) (ligand),EC50 [M] of ligand; NK92/hIL7R/STAT3-luc,[11],2e-11 M
same,EC50 [M] of ligand; NK92/hIL7R/STAT3-luc,[12],3.3e-11 M
human IL-15 (from UniProt P40933 49-162) (ligand),EC50 [M] of ligand; NK92/hIL7R/STAT3-luc,[11],1.5e-10 M
same,EC50 [M] of ligand; NK92/hIL7R/STAT3-luc,[12],2.3e-10 M
human IL-21 (from UniProt Q9HBE4 30-162) (ligand),EC50 [M] of ligand; NK92/hIL7R/STAT3-luc,[11],3.1e-12 M
same,EC50 [M] of ligand; NK92/hIL7R/STAT3-luc,[12],6e-12 M
